The results in this text go back to patent US20070071746A1 (AstraZeneca / MedImmune, published 2007).

For assay [1], the target named is T1, mouse YKL-40/BRP-39 (mouse, UniProt Q61362 30-389).
T1 construct: Recombinant from HEK293; non-tagged versions also made; also called mYKL40/BRP39; mYKL-40
In words: ELISA.

Assay [2] addresses T2, human YKL-40 (human, UniProt P36222 22-383).
T2 construct: Recombinant from HEK293; non-tagged versions also made; also called hYKL-40; chitinase 3-like 1
In words: ELISA.

In assay [3] the target is T3, mouse acidic mammalian chitinase (AMCase), full length (mouse, UniProt Q91XA9 22-473).
T3 construct: Recombinant, secreted from HEK293 cells and purified by its His tag; Biotin labeled in the galectin ELISA; also called mAMCase; mouse AMCase
T3 sequence (Q91XA9 other isoform, or with tags, fused parts or gaps limits assumed): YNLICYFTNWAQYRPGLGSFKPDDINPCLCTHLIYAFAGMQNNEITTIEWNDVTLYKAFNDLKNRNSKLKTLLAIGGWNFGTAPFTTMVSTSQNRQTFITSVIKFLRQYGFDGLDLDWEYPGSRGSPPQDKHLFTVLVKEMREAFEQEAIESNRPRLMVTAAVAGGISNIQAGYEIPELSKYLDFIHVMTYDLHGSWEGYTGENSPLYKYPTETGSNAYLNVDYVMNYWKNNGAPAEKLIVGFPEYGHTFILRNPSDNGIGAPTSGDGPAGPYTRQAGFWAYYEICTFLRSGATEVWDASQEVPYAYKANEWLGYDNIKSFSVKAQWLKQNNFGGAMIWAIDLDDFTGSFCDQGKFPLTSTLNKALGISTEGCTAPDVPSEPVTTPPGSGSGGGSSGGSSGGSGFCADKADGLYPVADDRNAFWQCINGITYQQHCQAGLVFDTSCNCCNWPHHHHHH
In words: ELISA; ++ = 1.00 to 2.49 OD at 62.5 ng/ml.

In assay [4] the target is T4, mouse AMCase truncated form lacking the C-terminal chitin binding domain (mouse, UniProt Q91XA9 22-398, limits assumed).
T4 construct: also called mAMCase TR
T4 sequence (Q91XA9 22-398 limits assumed): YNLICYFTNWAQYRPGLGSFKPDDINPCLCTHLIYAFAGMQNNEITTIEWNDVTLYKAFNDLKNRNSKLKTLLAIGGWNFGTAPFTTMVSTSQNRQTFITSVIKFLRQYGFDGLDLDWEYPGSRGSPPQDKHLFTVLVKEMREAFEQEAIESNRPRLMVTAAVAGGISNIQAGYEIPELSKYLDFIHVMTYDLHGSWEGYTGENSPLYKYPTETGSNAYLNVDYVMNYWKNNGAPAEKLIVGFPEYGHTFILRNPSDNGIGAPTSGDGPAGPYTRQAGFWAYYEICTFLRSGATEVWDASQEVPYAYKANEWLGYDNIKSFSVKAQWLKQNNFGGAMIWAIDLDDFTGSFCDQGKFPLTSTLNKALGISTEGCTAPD
As to the kind of experiment: ELISA; ++ = 1.00 to 2.49 OD at 62.5 ng/ml.

In assay [5] the target is T5, Ym2 (mouse, UniProt Q91Z98 22-402).
T5 construct: Recombinant from HEK293; non-tagged versions also made; also called chitinase 3-like 4
T5 sequence (Q91Z98 other isoform, or with tags, fused parts or gaps limits assumed): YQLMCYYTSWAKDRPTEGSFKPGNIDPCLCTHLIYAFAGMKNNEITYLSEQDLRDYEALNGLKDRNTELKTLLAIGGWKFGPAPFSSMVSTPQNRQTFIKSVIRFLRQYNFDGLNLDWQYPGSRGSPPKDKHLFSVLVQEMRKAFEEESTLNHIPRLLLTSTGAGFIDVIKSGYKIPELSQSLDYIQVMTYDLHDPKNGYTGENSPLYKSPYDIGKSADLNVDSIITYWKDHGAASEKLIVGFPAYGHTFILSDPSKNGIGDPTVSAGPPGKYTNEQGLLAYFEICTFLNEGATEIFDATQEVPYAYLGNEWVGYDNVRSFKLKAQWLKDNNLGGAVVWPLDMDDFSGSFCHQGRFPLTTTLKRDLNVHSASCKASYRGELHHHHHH
As to the kind of experiment: ELISA; + = 0.20 to 0.99 OD at 62.5 ng/ml.

The target of assay [6] is T6, mouse AMCase E140A (mouse, UniProt Q91XA9 22-473).
T6 construct: Full length point mutant without chitinase activity; also called mAMCase E140A
T6 sequence (Q91XA9 22-473 E140A limits assumed): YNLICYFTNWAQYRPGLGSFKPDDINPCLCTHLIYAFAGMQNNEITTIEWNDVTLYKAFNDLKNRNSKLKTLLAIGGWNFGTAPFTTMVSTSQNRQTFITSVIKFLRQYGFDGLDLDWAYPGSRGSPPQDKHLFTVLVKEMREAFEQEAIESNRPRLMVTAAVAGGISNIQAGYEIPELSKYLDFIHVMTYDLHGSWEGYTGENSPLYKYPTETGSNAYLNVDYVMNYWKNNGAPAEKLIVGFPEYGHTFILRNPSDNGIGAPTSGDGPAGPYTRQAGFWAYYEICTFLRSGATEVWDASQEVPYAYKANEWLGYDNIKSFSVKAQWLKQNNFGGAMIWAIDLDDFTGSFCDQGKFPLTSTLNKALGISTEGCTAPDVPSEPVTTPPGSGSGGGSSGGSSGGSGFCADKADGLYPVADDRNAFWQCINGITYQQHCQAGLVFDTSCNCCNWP
As to the kind of experiment: ELISA; + = 0.20 to 0.99 OD at 62.5 ng/ml.

Assay [7] concerns the target T7, human YKL-39 (human, UniProt Q15782 27-390).
T7 construct: Recombinant from HEK293; non-tagged versions also made; also called hYKL-39; chondrocyte protein 39
T7 sequence: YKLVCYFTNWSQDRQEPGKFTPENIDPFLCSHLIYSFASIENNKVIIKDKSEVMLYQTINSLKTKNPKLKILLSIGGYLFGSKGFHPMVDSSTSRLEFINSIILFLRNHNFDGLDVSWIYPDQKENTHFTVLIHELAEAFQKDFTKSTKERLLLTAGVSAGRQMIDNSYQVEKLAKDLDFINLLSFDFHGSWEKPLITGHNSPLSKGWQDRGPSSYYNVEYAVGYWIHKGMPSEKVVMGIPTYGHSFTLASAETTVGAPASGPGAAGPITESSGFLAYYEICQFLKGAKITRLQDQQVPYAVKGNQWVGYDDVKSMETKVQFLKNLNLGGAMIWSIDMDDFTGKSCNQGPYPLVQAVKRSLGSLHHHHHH
In words: ELISA; + = 0.20 to 0.99 OD at 62.5 ng/ml.

The target of assay [8] is T8, mouse chitotriosidase (mouse, UniProt Q9D7Q1 22-464).
T8 construct: Recombinant from HEK293; non-tagged versions also made; also called mChT; mouse ChT
T8 sequence (Q9D7Q1 other isoform, or with tags, fused parts or gaps limits assumed): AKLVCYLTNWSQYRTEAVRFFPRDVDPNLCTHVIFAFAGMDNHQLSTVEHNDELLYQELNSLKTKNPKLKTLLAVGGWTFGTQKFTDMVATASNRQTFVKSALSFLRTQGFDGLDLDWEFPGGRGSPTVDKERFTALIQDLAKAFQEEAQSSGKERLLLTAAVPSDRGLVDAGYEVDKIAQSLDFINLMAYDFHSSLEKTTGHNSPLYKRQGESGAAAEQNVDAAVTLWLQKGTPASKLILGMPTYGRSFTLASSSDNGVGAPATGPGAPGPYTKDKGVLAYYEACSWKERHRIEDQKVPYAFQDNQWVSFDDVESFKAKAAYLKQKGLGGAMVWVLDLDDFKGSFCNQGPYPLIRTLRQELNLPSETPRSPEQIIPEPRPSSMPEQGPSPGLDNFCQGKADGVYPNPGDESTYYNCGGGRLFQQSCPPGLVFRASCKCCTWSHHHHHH
In words: ELISA.

Assay [9] addresses T9, Ym1 (mouse, UniProt O35744 22-398).
T9 construct: Recombinant from HEK293; non-tagged versions also made; also called chitinase 3-like 3; ECF-L
In words: ELISA.

For assay [10], the target named is T5, Ym2. In words: ELISA.
For assay [11], the target named is T4, mouse AMCase truncated form lacking the …. In words: ELISA.
In assay [12] the target is T10, human chitotriosidase (human, UniProt Q13231 22-466).
T10 construct: Recombinant from HEK293; non-tagged versions also made; also called hChT; ChT
T10 sequence (Q13231 other isoform, or with tags, fused parts or gaps limits assumed): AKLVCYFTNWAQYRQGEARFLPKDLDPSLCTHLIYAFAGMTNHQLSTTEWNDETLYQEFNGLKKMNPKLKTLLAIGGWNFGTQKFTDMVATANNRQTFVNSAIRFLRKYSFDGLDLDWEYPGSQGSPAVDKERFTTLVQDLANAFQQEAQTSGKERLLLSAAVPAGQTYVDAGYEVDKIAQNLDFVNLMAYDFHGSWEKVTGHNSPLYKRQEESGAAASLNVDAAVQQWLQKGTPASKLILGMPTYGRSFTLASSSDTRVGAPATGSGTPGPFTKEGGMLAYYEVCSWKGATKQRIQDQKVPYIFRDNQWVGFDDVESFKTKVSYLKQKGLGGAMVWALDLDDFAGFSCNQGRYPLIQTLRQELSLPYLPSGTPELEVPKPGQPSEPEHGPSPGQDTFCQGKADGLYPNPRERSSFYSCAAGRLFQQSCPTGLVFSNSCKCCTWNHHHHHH
In words: ELISA.

The target of assay [13] is T7, human YKL-39. In words: ELISA.
The target of assay [14] is T11, human AMCase C-terminally truncated, lacking the chitin binding domain (human, UniProt Q9BZP6 22-398, limits assumed).
T11 construct: Biotin labeled in the galectin ELISA; also called hAMCase TR
T11 sequence (Q9BZP6 22-398 limits assumed): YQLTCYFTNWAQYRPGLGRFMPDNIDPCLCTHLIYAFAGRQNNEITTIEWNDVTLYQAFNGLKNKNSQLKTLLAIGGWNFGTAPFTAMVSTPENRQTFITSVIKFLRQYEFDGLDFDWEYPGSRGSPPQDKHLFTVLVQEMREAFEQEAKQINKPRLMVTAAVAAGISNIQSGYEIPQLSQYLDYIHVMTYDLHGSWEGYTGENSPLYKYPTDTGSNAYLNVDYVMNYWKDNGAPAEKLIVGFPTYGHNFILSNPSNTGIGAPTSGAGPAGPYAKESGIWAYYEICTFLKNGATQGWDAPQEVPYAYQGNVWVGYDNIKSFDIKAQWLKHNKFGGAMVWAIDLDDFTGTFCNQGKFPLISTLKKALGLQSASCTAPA
In words: ELISA.

Assay [15] deals with T12, mouse AMCase D136A (mouse, UniProt Q91XA9 22-473).
T12 construct: Full length point mutant without chitinase activity; also called mAMCase D136A
T12 sequence (Q91XA9 22-473 D136A limits assumed): as the sequence (Q91XA9 22-473 E140A limits assumed) above, with D115A, A119E counted along it
As to the kind of experiment: ELISA; ++ = 1.00 to 2.49 OD at 62.5 ng/ml.

Assay [16] concerns the target T3, mouse acidic mammalian chitinase …. As to the kind of experiment: ELISA; + = 0.20 to 0.99 OD at 62.5 ng/ml.

T2 sequence (P36222 other isoform, or with tags, fused parts or gaps limits assumed): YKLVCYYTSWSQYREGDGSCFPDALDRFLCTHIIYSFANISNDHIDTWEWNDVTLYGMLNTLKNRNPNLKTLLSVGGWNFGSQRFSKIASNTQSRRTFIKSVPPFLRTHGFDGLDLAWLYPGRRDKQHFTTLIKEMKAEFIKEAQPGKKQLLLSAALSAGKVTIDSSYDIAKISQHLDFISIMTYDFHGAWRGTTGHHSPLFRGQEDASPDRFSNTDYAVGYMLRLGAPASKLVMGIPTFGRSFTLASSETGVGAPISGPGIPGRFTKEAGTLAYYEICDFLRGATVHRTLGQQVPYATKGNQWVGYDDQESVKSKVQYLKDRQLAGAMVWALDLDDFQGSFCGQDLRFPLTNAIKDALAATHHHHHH
T1 sequence (Q61362 other isoform, or with tags, fused parts or gaps limits assumed): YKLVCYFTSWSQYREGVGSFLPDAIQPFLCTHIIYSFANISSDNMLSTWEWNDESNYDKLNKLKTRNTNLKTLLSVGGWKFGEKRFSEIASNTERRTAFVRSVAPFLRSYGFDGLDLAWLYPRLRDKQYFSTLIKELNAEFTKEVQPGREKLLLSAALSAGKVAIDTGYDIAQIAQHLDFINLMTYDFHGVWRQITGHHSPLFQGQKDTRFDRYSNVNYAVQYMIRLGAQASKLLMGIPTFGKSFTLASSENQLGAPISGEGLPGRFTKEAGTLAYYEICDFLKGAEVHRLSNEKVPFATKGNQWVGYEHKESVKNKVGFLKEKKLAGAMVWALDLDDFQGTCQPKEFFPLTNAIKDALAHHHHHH
T9 sequence (O35744 other isoform, or with tags, fused parts or gaps limits assumed): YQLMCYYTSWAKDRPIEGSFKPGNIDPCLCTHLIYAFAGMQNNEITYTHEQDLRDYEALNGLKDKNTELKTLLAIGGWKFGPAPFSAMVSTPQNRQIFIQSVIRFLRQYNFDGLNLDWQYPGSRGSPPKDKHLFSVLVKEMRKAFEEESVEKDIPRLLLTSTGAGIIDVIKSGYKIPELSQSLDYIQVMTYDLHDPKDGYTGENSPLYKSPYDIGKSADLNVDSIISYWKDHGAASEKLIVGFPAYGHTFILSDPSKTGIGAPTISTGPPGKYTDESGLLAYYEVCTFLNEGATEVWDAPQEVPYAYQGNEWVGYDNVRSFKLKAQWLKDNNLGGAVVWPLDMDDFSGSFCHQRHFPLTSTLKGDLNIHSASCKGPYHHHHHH

B1: Z1 (antibody, V domains shown)
VH: EVQLLESGGGLVQPGGSLRLSCAASGFTFSFYRMAWVRQAPGKGLEWVSRISSSGGPTMYADSVKGRFTISRDNSKNTLYLQMNSLRAEDTAVYYCTTEKQYAGVTFESWGQGTLVTVSS
VL: DIQMTQSPATLSLSPGERATLSCRASQSVSSYLAWYQQKPGQAPRLLIYDASNRATGIPARFSGSGSGTDFTLTISSLEPEDFAVYYCQQRSNSPTFGGGTKVEIK
notes: Fully human anti-AMCase antibody from phage display, converted to full length IgG
In the case of B1, the binding result in [1] is recorded as “no binding”; in [2], “no binding”; in [5] it was “binds”. For the same molecule, the “ELISA OD at 62.5 ng/ml antibody” value fell in the range of 1 to 2.49 od in [3], 1 to 2.49 od in assay [4], 0.2 to 0.99 od in assay [6] and 0.2 to 0.99 od in assay [7].

B2: Z8 (antibody, V domains shown)
VH: EVQLLESGGGLVQPGGSLRLSCAASGFTFSPYLMWWVRQAPGKGLEWVSYISSSGGYTSYADSVKGRFTISRDNSKNTLYLQMNSLRAEDTAMYYCARMYYYDSSGYPSFDYWGQGTLVTVSS
VL: QSALTQPPSASGTPGQRVTISCSGSGSNIGSNTVNWYQQLPGTAPKLLIYSSNQRPSGVSDRFSGSKSVASASLAINGLQSEDEADYYCAGWDDSLNGPVFGGGTKLTVL
notes: as for B1
Consider B2, for which the binding result in assay [8], in assay [1], in assay [9], in [10], in assay [11] and in [12] was “no binding” in each case. The binding result in assay [13], in [2] and in [14] was “no binding” throughout. The “ELISA OD at 62.5 ng/ml antibody” value in assay [15] is 1 to 2.49 od; in assay [16], 0.2 to 0.99 od; in assay [6], 0.2 to 0.99 od.
